A word on the EC50: it is the midpoint of the concentration-response curve. High values mean a need for much substance, low ones an effect from little substance.

The chains are these.
B1: DGL499 (bispecific antibody, V domains shown)
V domain 1: EVQLVESGGGLVQAGGSLRLSCAASGLTFRNYAMAWFRQAPGKEREFVAGITWGGGLTHYVDSVKGRFTISRDNGKNTVYLQMNSLKSEDTAVYYCAGKTQGSTWYHLTPDGYDYWGQGTQVTVEP
V domain 2: QVQLVESGGGLVQPGGSLRLSCAASGFTFEPYDMSWFRQAPGKGPEWVSAIDKGGGAGATYYADSVKGRFTISRDNAKKTLYLQMKSLKPEDTAVYYCAITAGPYSDSTPRVAYRGEGTQVTVEP
B2: DGL504 (bispecific antibody, V domains shown)
V domain 1: EVQLVESGGGLVQAGGSLRLSCAASGLTFRNYAMAWFRQAPGKEREFVAGITWGGGLTHYVDSVKGRFTISRDNGKNTVYLQMNSLKSEDTAVYYCAGKTQGSTWYHLTPDGYDYWGQGTQVTVEP
V domain 2: QVQLVESGGGLVQAGGSLRLSCAASGRTFSSYAMGWFRQAPGKEREFVSAISWSGLSTYYVESVQGRFTISRDNAKNTVYLQMNSLKPEDTAVYYCAASRIYTNYVARSYEYDDWGQGTQVTVEP
B3: DGL454 (bispecific antibody, V domains shown)
V domain 1: QVQLQESGGALVQPGGSLRLSCVVSGFTSDYFAIGWFRQAPGKEREGVSCIGSSDGSTIYSDSVKGRFTISRDNAKNTVYLQMNSLKPEDTGVYYCALDRGRRTIIGYACYATMKYWGKGTPVTVEP
V domain 2: QVQLVESGGGLVQPGGSLRLSCAASGFTFEPYDMSWFRQAPGKGPEWVSAIDKGGGAGATYYADSVKGRFTISRDNAKKTLYLQMKSLKPEDTAVYYCAITAGPYSDSTPRVAYRGEGTQVTVEP
B4: DGL484 (bispecific antibody, V domains shown)
V domain 1: QVQLVESGGGLVQAGGSLRLSCAASARIFNSYAVAWFRQTPGKEREFVASISWSGGSTNYADSVKGRFTISRDNAKNTVFLQMNSLKPADTAVYYCAADRNYYPSVLGKYTYWGQGTQVTVEP
V domain 2: QVQLVESGGGLVQPGGSLRLSCAASGFTFEPYDMSWFRQAPGKGPEWVSAIDKGGGAGATYYADSVKGRFTISRDNAKKTLYLQMKSLKPEDTAVYYCAITAGPYSDSTPRVAYRGEGTQVTVEP
B5: DGL524 (bispecific antibody, V domains shown)
V domain 1: EVQLVESGGGLVQPGGSLRLFCAASRSIFNINIMGWYRQAPGKQREWLASITSGGSTFYADSVKDRFTISRDSVKNTVYLQMNSLKPEDTAAYYCNRYRSVPLNTVYPWGQGTLVTVEP
V domain 2: QVQLVESGGGLVQAGGSLRLSCAASGRIFSAYRMGWFRQAPGKEREFVAGITWRGQTTYYAASVKGRFTISKDNAKKTVYLQMNSLKPEETAVYYCAVETNGLGRWDRPSEYDYWGQGTQVTVEP
B6: DGL537 (bispecific antibody, V domains shown)
V domain 1: QVQLVESGGGLVQAGGSLRLSCLASGRTSNYFMGWFRQAPGKEREFVAAISRSGGGTWYADSVKGRFAISRDNAKNTVNLQMNSLKREDTAVYYCAADRRTGTSVYTVDEYDYWGQGTQVTVEP
V domain 2: QVQLVESGGGLVQAGGSLRLSCAASGRIFSAYRMGWFRQAPGKEREFVAGITWRGQTTYYAASVKGRFTISKDNAKKTVYLQMNSLKPEETAVYYCAVETNGLGRWDRPSEYDYWGQGTQVTVEP
B7: DGL462 (bispecific antibody, V domains shown)
V domain 1: EVQLVESGGGLVQPGGSLRLSCAASGFTFQNYAMSWLRKAPGEGLEWVSVINSGGGSTLYADSVKGRFTISRDNAKNTLYLQMHSLKSEDTAVYFCAKRRDDSTFGSLLYTHRGQGTQVTVEP
V domain 2: QVQLVESGGGLVQAGGSLRLSCAASGRIFSAYRMGWFRQAPGKEREFVAGITWRGQTTYYAASVKGRFTISKDNAKKTVYLQMNSLKPEETAVYYCAVETNGLGRWDRPSEYDYWGQGTQVTVEP
B8: DGL599 (bispecific antibody, human IgG1, V domains shown)
V domain 1: EVQLVESGGGLVQAGGSLRLSCAASGSKFSFNAMGWYRQTPGKQRELVAIIINGDMINYADSVKGRFTISRDNAKNTMYLQMNSLKPEDTAVYYCKMTRYVYDYWGQGTQVTVEP
V domain 2: QVQLVQSGAEVKKPGASVRVSCKASGYTFTSYYIHWVRQAPGQGLEWMGIINPSGGSTSYAQKFQGRVTMTRDTSTTTVYMELSSLRSEDTAVYYCAKSNWAYAFDIWGQGTMVTVSS
B9: DGL464 (bispecific antibody, V domains shown)
V domain 1: QVQLVESGGGLVQAGGSLRLSCAASGRAFSRYSMGWFRQAPGKEREFVAANYWSNGWTDYADTVKGRFSISRDNAKNTVYLQMNSLKPEDTAVYYCAGRSSSIPSADVVGYDYWGQGTQVTVEP
V domain 2: QVQLVESGGGLVQPGGSLRLSCAASGFTFSNYAMSWVRQAPGKGLEWVSAINSDGTSTSYADSVKGQFTISRDNAKNTLYLQMNSLKPEDTAVYYCTKWEGDTDSDYKFKDYWGQGTQVTVEP
B10: DGL584 (bispecific antibody, V domains shown)
V domain 1: QVQLQESGGGLVQAGGSLRLSCAASGSIASINAMGWYRQAPGKQRDFVARIQLSGSTNYAHSVRGRFTISRDNAKNTVYLQMNNLKPEDTAVYVCAASNTGSLYGLRNYWGQGTQVTVEP
V domain 2: QVQLVESGGGLVQPGGSLRLSCAASGFTFSSKAMHWFRQAPGKGLEWVSSINSGGAITYYKDSVKGRFTVSRDNAKNILYLEMNSLKPEDTALYYCATDTDGRTRGQGTQVTVEP
B11: DGL445 (bispecific antibody, human IgG1, lambda)
heavy 1: not shown
heavy 2: QVQLVQPGAEVKKPGASVKVSCKASGYTFTGYYMHWVRQAPGQGLEWMGWINPKSGGTNYAQKFQGRVTMTRDTSISTAYMELTRLRSDDTAVYYCARDQGYGDYVLKHWGQGTLVTVSSASTKGPSVFPLAPSSKSTSGGTAALGCLVKDYFPEPVTVSWNSGALTSGVHTFPAVLQSSGLYSLSSVVTVPSSSLGTQTYICNVNHKPSNTKVDKKVEPKSCDKTHTCPPCPAPEAAGAPSVFLFPPKPKDTLMISRTPEVTCVVVDVSHEDPEVKFNWYVDGVEVHNAKTKPREEQYNSTYRVVSVLTVLHQDWLNGKEYKCKVSNKALPAPIEKTISKAKGQPREPQVCTLPPSRDELTKNQVSLSCAVKGFYPSDIAVEWESNGQPENNYKTTPPVLDSDGSFFLVSKLTVDKSRWQQGNVFSCSVMHEALHNRFTQKSLSLSPG
light: SYVLTQPPSVSVAPGQTARITCGGDNIGSKSVHWYQQKPGQAPVPVVYDDSDRPSGIPERFSGSNSGNTATLTISRVEAGDEADYYCQVWDSSSDHVVFGGGTKLTVLGQPKAAPSVTLFPPSSEELQANKATLVCLISDFYPGAVTVAWKADSSPVKAGVETTTPSKQSNNKYAASSYLSLTPEQWKSHRSYSCQVTHEGSTVEKTVAPTECS
B12: DGL575 (bispecific antibody, V domains shown)
V domain 1: QVQLVESGGGLVQAGGSLRLSCAASRSISSFNEMAWYRQAPGEQRELVATIVSTVGFTNYADSVKGRFTISRDNAKNTVYLQMNSLKAEDTAVYYCNARRISTDYWGQGTQVTVEP
V domain 2: QVQLQESGPGLVKPSQTLSLTCTVSGGSITTNYYYWSWIRQPPGKGLEWMGAIAYSGSTYYSPSLKSRTSISRDTSKNQFTLQLSSVTPEDTAVYYCASGINFYSNYPTLNEYDYWGQGTQVTVEP
B13: DGL574 (bispecific antibody, V domains shown)
V domain 1: QVQLVESGGGLVQAGGSLRLSCAASRSISSFNEMAWYRQAPGEQRELVATIVSTVGFTNYADSVKGRFTISRDNAKNTVYLQMNSLKAEDTAVYYCNARRISTDYWGQGTQVTVEP
V domain 2: QVQLVESGGGLVQAGGSLRLSCAASGRTFSRYRMGWFRQAPGKEREFVAAITKSGATTYDADSVKGRFTISRDNAKNTLYLQMNSLKPEDTAVYYCAASYHSNWWPKNADEYAYWGQGTQVTVEP
B14: DGL441 (bispecific antibody, human IgG1, lambda)
heavy 1: not shown
heavy 2: EVQLVESGGGLVQPGGSLRLSCAASGFTFSTYDMHWVRQATGKGLEWVSLIDTAGDTYYPDSVKGRFTISRENAKNSLYLQMNSLRAGDTAVYYCAREGWGYFDYWGQGALVTVSSASTKGPSVFPLAPSSKSTSGGTAALGCLVKDYFPEPVTVSWNSGALTSGVHTFPAVLQSSGLYSLSSVVTVPSSSLGTQTYICNVNHKPSNTKVDKKVEPKSCDKTHTCPPCPAPEAAGAPSVFLFPPKPKDTLMISRTPEVTCVVVDVSHEDPEVKFNWYVDGVEVHNAKTKPREEQYNSTYRVVSVLTVLHQDWLNGKEYKCKVSNKALPAPIEKTISKAKGQPREPQVCTLPPSRDELTKNQVSLSCAVKGFYPSDIAVEWESNGQPENNYKTTPPVLDSDGSFFLVSKLTVDKSRWQQGNVFSCSVMHEALHNRFTQKSLSLSPG
light: QSALTQPPSVSGSPGQSVTISCTGTSSDVGSYNRVSWYQQPPGTAPKLMIYEVSNRPSGVPDRFSGSKSGNTASLTISGLQAEDEADYYCSLYTGSSTVVFGGGTKVTVLGQPKAAPSVTLFPPSSEELQANKATLVCLISDFYPGAVTVAWKADSSPVKAGVETTTPSKQSNNKYAASSYLSLTPEQWKSHRSYSCQVTHEGSTVEKTVAPTECS
B15: DGL527 (bispecific antibody, V domains shown)
V domain 1: EVQLVESGGGLVQPGGSLTLSCTASGFRFSDRSMGWYRQAPGKQRELVAAITVGGSTNYADSVKGRFTISRDNAKNTVYLQMNSLKPEDTALYYCNRRYPPDDYWGQGTQVTVEP
V domain 2: QVQLVESGGGLVRPGGSLRLSCAASGFTFSSNGMHWFRQAPGKGLEWVSSIGSGGTSIYYADSVKGRFTISRDNAKNTLYLQMNSLKSDDTAVYYCSKEVTGATRGQGTQVTVEP
B16: DGL533 (bispecific antibody, V domains shown)
V domain 1: EVQLVESGGGLVQPGGSLTLSCTASGFRFSDRSMGWYRQAPGKQRELVAAITVGGSTNYADSVKGRFTISRDNAKNTVYLQMNSLKPEDTALYYCNRRYPPDDYWGQGTQVTVEP
V domain 2: QVQLVESGGGLVQAGGSLRLSCAASGRTFSSYAMGWFRQAPGKEREFVSAISWSGLSTYYVESVQGRFTISRDNAKNTVYLQMNSLKPEDTAVYYCAASRIYTNYVARSYEYDDWGQGTQVTVEP

Chain of human IL-12 receptor (IL-12Rβ1 and IL-12Rβ2) on HEK-Blue IL-12 cells (Q99665 24-862, chain 2 of 2, other chains not shown): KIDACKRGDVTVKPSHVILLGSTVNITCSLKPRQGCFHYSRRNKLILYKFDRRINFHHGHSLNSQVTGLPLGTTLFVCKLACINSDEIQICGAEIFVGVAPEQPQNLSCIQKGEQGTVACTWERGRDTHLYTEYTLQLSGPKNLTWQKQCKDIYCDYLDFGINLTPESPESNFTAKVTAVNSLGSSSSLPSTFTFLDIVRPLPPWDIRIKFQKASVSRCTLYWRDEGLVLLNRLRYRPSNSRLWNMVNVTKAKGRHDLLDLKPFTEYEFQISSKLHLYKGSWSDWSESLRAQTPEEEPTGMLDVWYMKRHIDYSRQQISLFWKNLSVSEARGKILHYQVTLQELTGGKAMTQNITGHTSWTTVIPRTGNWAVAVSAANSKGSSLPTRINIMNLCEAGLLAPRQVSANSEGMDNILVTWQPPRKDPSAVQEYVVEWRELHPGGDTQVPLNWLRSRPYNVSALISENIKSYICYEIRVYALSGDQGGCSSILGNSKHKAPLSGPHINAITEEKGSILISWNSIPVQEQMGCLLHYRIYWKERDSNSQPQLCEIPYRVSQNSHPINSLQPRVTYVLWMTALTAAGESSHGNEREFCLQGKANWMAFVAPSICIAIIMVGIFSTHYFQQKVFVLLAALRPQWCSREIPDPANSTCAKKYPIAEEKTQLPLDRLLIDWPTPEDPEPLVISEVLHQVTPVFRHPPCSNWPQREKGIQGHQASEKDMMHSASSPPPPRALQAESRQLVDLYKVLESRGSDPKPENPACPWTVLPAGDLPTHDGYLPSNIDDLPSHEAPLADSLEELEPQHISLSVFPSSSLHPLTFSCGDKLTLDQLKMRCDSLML

This assay concerns the target human IL-12 receptor (IL-12Rβ1 and IL-12Rβ2) on HEK-Blue IL-12 cells (human, UniProt P42701 24-662; Q99665 24-862). The assay can be described thus: cell-based or functional assay.
As for B1, the EC50 was 8.1e-09 M (implied) and the “Max Absorbance” value came out at 0.56.

For B2, the half-maximal effective concentration (EC50) is more than 100 nM and the “Max Absorbance” value was determined as 0.41.

As for B3, the EC50 is more than 100 nM and the “Max Absorbance” value worked out at 0.47.

Take B4: the EC50 is 9.7e-09 M (implied) and the “Max Absorbance” value is 0.54.

On to B5, for which the half-maximal effective concentration (EC50) was 4.4e-10 M (implied) and the “Max Absorbance” value was 0.58.

With B6, the EC50 was 5.9e-10 M (implied) and the “Max Absorbance” value stood at 0.55.

As for B7, the EC50 was 1.2e-09 M (implied) and the “Max Absorbance” value is 0.52.

For B8, the EC50 is more than 100 nM and the “Max Absorbance” value was 0.48.

In the case of B9, the EC50 is more than 100 nM and the “Max Absorbance” value turned out to be 0.47.

With B10, the EC50 was more than 100 nM and the “Max Absorbance” value came to 0.58.

Regarding B11, the EC50 is more than 100 nM and the “Max Absorbance” value is 0.42.

Consider B12, for which the EC50 is more than 100 nM and the “Max Absorbance” value came out at 0.43.

In the case of B13, the 50% effective concentration (EC50) was more than 100 nM and the “Max Absorbance” value stood at 0.41.

Turning to B14, the 50% effective concentration (EC50) was 4e-11 M (implied) and the “Max Absorbance” value worked out at 0.45.

Turning to B15, the EC50 is more than 100 nM and the “Max Absorbance” value stood at 0.54.

For B16, the concentration for a half-maximal effect (EC50) was more than 100 nM and the “Max Absorbance” value was 0.42.

These data come from patent US20250019450A1 (DIAGONAL THERAPEUTICS, published 2025).
